Results reported in patent US20180049457A1, “ENZYMATIC SYNTHESIS OF SOLUBLE GLUCAN FIBER” (E I DU PONT DE NEMOURS AND COMPANY, priority 2014, published 2018).
Positions count from the first letter of the chain named.

B1: GTF4336T6: T6 C-terminal truncation of GTF4336, SEQ ID NO: 146, strain SG1309 (protein)
chain: INGKQYYVNSDGSVRKNFVFEQDGKSYYFDAETGALATKSQDEFSTEPIKATVDFSSGNQLYKNDDKSLDQLDTFITADAWYRPKSILKDGKTWTASTEADKRPLLMVWWPDKSTQVNYLNYMQNQGLGAGSFSTNSSQESLDQAAKAVQTKIEERIAREGNTNWLRTSIDQFIKTQPGWNSSTENSSYDHLQGGQLLFNNSKGDTGNRTSHANSDYRLLNRTPTNQTGTRKYFKDNSIGGLEFLLANDIDNSNPAVQAEQLNWLHFMMNIGSIMANDPTANFDGLRVDALDNVDADLLQIASDYFKAAYGVDKSEANAIKHLSYLEAWSANDPYYNKDTKGAQLPIDNALRNALTNLLMRDKNTRMQLGDMTAFINSSLNPRGANDKNGERMANYIFTRAHDTEAQTIIQRIIRDRINPNLFGYNFTRDEIKKAFEIYNEDIDKAHKTYASYNLPSVYALMLTNKDSVTRVYYGDLYREDGHYMAKKTPYFDAIDTLLRARIKYVAGGQDMEVKKVGNDGLLTSVRYGKGANNRTDLGTSETRTQGMGVIMTNNYDFRLGSNETVTMNMGRAHRNQLYRPLLLTTKDGIATYFNDSDVPKNLLKRTDWNGNLTFNANDVFGVENVQVSGYLGVWVPVGAKANQDARTQPSNRANSDGQVYKSSAALDSQVMYEAFSNFQAFADDQPELYMNRVLAKNTDLLKAWGVTSVGLPPQYVSSKDGTFLDSTIDNGYAFDDRYDMALSQNNKYGSLEDLLNVLRALHKDGIQAIADWVPDQIYNLPGKEVVNATRVNGYGYHQQGYQIVDQAYVANTRTDGTDYQGKYGGAFLDELKAKYPSIFNRVQISNGKQLPTNEKITKWSAKYFNGTNILGRGINYVLRDDKTNQYFNTSANSQLLPTPLRDTGAITSTQVFQRRGQDVYFLRDNQAVKNEFVQDGNGNWYYFGADGKMTKGAQTINKKDYYFFDNGIQLRNALRRANNGYTYYYGLDGAMVKNAFVDFDDKRKQVRAFTTQG
modifications: T6 C-terminal truncation of GTF4336
B2: GTF4336T1: T1 C-terminal truncation of GTF4336, SEQ ID NO: 142, strain SG1307 (protein)
chain: INGKQYYVNSDGSVRKNFVFEQDGKSYYFDAETGALATKSQDEFSTEPIKATVDFSSGNQLYKNDDKSLDQLDTFITADAWYRPKSILKDGKTWTASTEADKRPLLMVWWPDKSTQVNYLNYMQNQGLGAGSFSTNSSQESLDQAAKAVQTKIEERIAREGNTNWLRTSIDQFIKTQPGWNSSTENSSYDHLQGGQLLFNNSKGDTGNRTSHANSDYRLLNRTPTNQTGTRKYFKDNSIGGLEFLLANDIDNSNPAVQAEQLNWLHFMMNIGSIMANDPTANFDGLRVDALDNVDADLLQIASDYFKAAYGVDKSEANAIKHLSYLEAWSANDPYYNKDTKGAQLPIDNALRNALTNLLMRDKNTRMQLGDMTAFINSSLNPRGANDKNGERMANYIFTRAHDTEAQTIIQRIIRDRINPNLFGYNFTRDEIKKAFEIYNEDIDKAHKTYASYNLPSVYALMLTNKDSVTRVYYGDLYREDGHYMAKKTPYFDAIDTLLRARIKYVAGGQDMEVKKVGNDGLLTSVRYGKGANNRTDLGTSETRTQGMGVIMTNNYDFRLGSNETVTMNMGRAHRNQLYRPLLLTTKDGIATYFNDSDVPKNLLKRTDWNGNLTFNANDVFGVENVQVSGYLGVWVPVGAKANQDARTQPSNRANSDGQVYKSSAALDSQVMYEAFSNFQAFADDQPELYMNRVLAKNTDLLKAWGVTSVGLPPQYVSSKDGTFLDSTIDNGYAFDDRYDMALSQNNKYGSLEDLLNVLRALHKDGIQAIADWVPDQIYNLPGKEVVNATRVNGYGYHQQGYQIVDQAYVANTRTDGTDYQGKYGGAFLDELKAKYPSIFNRVQISNGKQLPTNEKITKWSAKYFNGTNILGRGINYVLRDDKTNQYFNTSANSQLLPTPLRDTGAIT
modifications: T1 C-terminal truncation of GTF4336
B3: GTF4991T1: T1 C-terminal truncation of GTF4991, SEQ ID NO: 148, strain SG1310 (protein)
chain: B2 chain with F594L, V638Y, V707I, T728I, Y877F
modifications: T1 C-terminal truncation of GTF4491
B4: GTF4336T2: T2 C-terminal truncation of GTF4336, SEQ ID NO: 144, strain SG1308 (protein)
chain: INGKQYYVNSDGSVRKNFVFEQDGKSYYFDAETGALATKSQDEFSTEPIKATVDFSSGNQLYKNDDKSLDQLDTFITADAWYRPKSILKDGKTWTASTEADKRPLLMVWWPDKSTQVNYLNYMQNQGLGAGSFSTNSSQESLDQAAKAVQTKIEERIAREGNTNWLRTSIDQFIKTQPGWNSSTENSSYDHLQGGQLLFNNSKGDTGNRTSHANSDYRLLNRTPTNQTGTRKYFKDNSIGGLEFLLANDIDNSNPAVQAEQLNWLHFMMNIGSIMANDPTANFDGLRVDALDNVDADLLQIASDYFKAAYGVDKSEANAIKHLSYLEAWSANDPYYNKDTKGAQLPIDNALRNALTNLLMRDKNTRMQLGDMTAFINSSLNPRGANDKNGERMANYIFTRAHDTEAQTIIQRIIRDRINPNLFGYNFTRDEIKKAFEIYNEDIDKAHKTYASYNLPSVYALMLTNKDSVTRVYYGDLYREDGHYMAKKTPYFDAIDTLLRARIKYVAGGQDMEVKKVGNDGLLTSVRYGKGANNRTDLGTSETRTQGMGVIMTNNYDFRLGSNETVTMNMGRAHRNQLYRPLLLTTKDGIATYFNDSDVPKNLLKRTDWNGNLTFNANDVFGVENVQVSGYLGVWVPVGAKANQDARTQPSNRANSDGQVYKSSAALDSQVMYEAFSNFQAFADDQPELYMNRVLAKNTDLLKAWGVTSVGLPPQYVSSKDGTFLDSTIDNGYAFDDRYDMALSQNNKYGSLEDLLNVLRALHKDGIQAIADWVPDQIYNLPGKEVVNATRVNGYGYHQQGYQIVDQAYVANTRTDGTDYQGKYGGAFLDELKAKYPSIFNRVQISNGKQLPTNEKITKWSAKYFNGTNILGRGINYVLRDDKTNQYFNTSANSQLLPTPLRDTGAITSTQVFQRRGQDVYFLRDNQAVKNEFVQDGNGNWYYFGADG
modifications: T2 C-terminal truncation of GTF4336
B5: GTF4991T2: T2 C-terminal truncation of GTF4991, SEQ ID NO: 150, strain SG1311 (protein)
chain: B4 chain with F594L, V638Y, V707I, T728I, Y877F, A928T, A946G
modifications: T2 C-terminal truncation of GTF4491

Assay: GTF activity of strains (PAHBAH assay)
Type: biochemical
Settings: Experiment Number 1; enzyme expressed in B. subtilis host
Outline: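 Glucosyltransferase (GTF) activity of the bacterial strains was measured with the PAHBAH assay. The enzymes tested were truncated GTF variants produced in a Bacillus subtilis expression host. Measurements were split across three separate experiments, and each activity value is reported together with the experiment it came from because results varied slightly between experiments.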

Row | Molecule | GTF activity of strains: Acitivity [U/mL]
1 | B1 | 28.9
2 | B2 | 9.4
3 | B3 | 23.1
4 | B4 | 11.5
5 | B5 | 4.9
